In assay [1] the target is T1, recombinant human Netrin-4 (human, UniProt Q9HB63 19-628, limits assumed).
T1 sequence: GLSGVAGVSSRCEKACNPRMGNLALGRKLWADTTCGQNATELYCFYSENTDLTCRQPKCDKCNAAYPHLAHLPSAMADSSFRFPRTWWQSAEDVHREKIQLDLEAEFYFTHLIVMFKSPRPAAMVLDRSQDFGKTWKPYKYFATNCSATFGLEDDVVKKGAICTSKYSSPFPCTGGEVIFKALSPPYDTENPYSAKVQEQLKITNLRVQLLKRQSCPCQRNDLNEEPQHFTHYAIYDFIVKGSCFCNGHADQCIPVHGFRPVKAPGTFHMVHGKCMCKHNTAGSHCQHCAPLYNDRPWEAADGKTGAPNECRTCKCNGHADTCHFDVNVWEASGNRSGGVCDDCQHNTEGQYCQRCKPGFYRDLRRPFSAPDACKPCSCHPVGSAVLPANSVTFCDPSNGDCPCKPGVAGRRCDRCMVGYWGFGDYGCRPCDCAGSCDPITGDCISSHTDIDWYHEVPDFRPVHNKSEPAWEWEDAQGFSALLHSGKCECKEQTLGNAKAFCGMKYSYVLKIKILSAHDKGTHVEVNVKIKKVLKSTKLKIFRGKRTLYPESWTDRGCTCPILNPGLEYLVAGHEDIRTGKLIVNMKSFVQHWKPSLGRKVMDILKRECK
Nature of the assay: ELISA screening of hybridoma culture supernatant. An excerpt:
(§1) Four mice were immunized with the epitope peptide. After four immunizations, the blood was collected to determine the antibody titers using ELISA against recombinant human Netrin-4 and TGGEVIFKALS peptide. Mouse lymphocytes with increased antibody titers were fused with myeloma cells, and cultured in HAT medium to produce hybridomas. About ten days after cell fusion, antibody production in the culture supernatant was screened by ELISA (against recombinant human Netrin-4 and TGGEVIFKALS peptide), and 95 positive wells were selected. Primary cloning was then performed by limiting dilution, followed by screening by ELISA (against recombinant human Netrin-4 and TGGEVIFKALS peptide). Secondary cloning was then performed by limiting dilution, followed by screening by ELISA (against recombinant human Netrin-4 and TGGEVIFKALS peptide). A single clone was selected. The selected clone was expanded, and cultured at a high density in a serum-free medium. The culture medium was collected and purified on a protein A column to produce IgG. Purity was measured using AKTA-FPLC, and the titer was measured by ELISA. IgG was further purified with low endotoxin levels and used for the subsequent experiments.
On the technique in general: In an ELISA, binding on a coated surface is turned into a signal by an enzyme label.

Assay [2] has as its target T2, TGGEVIFKALS peptide (amino acid residues 192 to 202 of human Netrin-4) (human).
T2 construct: The immunogen was C-Ahx-TGGEVIFKALS linked to bovine thyroglobulin; The ELISA antigen is named only as the TGGEVIFKALS peptide
T2 peptide: TGGEVIFKALS
Briefly: ELISA screening of hybridoma culture supernatant.
Description: as §1

Results on 1 molecule are retold here after patent publication US20250270305A1 (OSAKA UNIVERSITY, published 2025).

B1: anti-Netrin-4 monoclonal antibody produced by the hybridoma cell line Human Netrin-4 (192-202)-6A1 (Accession No. NITE BP-03603) (antibody, V domains shown)
VH: QVQLHQSGPELVRPGASVTLSCKASGYTFTDYEMHWVKQTPVHGLEWIGAIDPETGDTVYNQKFKGKATLTADKSSSTAYMELSSLTSEDSAVYYCVDGFSDHYWGQGTTLTVSS
VL: VLVLTQTPLSLPVRLGDRASISCRSSQSLVHSSGNTFLHWYLQKPGQSPKLLIYKVSSRFSGVPDRFSGSGSGTDFTLKISRMEAEDLGVYFCSQSTHIPYTFGGGTKLEIKR
notes: In the ELISA screens the antibody was hybridoma culture supernatant
For the molecule B1, the binding result in assay [1] and in assay [2] was “binds” throughout.
